Results published in publication PMC10724065, “Evolution of a plant growth-regulatory protein interaction specificity” (Nature Plants, 2023).

What was measured:
[1] = molecular target: Marchantia polymorpha MpDELLA (yeast prey fusion); assay: yeast 2-hybrid; settings: parent: est. 180; read off a plot
[2] = molecular target: A. thaliana GAI (yeast prey fusion) (UniProt Q9LQT8); assay: yeast 2-hybrid; settings: parent: est. 37; read off a plot
His-tagged GAI [3] = molecular target: T1, His-tagged GAI (Arabidopsis thaliana, UniProt Q9LQT8 1-533); assay: pull-down; 5 μg His-GAI/gai held on Ni-NTA agarose, 5 μg MBP-SLY1/sly1 added, 1 h at 4 °C, five washes, immunoblot with anti-His and anti-MBP; settings: both partners purified
T1 construct: GAI of A. thaliana; also called His-GAI; His-tagged AtGAI; source: E. coli BL21, purified (Ni-NTA agarose)
T1 sequence (looked up): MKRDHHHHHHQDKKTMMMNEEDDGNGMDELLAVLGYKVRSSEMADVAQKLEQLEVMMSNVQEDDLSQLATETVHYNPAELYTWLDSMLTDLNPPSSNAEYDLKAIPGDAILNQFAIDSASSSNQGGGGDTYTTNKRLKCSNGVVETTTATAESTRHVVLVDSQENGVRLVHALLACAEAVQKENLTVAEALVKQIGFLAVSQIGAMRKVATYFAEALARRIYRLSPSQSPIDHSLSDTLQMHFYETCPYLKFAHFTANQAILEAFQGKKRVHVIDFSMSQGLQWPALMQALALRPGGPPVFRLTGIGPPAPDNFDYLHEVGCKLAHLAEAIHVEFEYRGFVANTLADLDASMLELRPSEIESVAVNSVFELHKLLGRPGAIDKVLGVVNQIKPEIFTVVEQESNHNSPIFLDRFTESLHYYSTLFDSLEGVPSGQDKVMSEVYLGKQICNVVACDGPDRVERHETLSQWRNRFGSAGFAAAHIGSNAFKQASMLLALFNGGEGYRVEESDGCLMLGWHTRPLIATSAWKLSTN

His-tagged GAI [4] = molecular target: T1, His-tagged GAI; assay: pull-down; 5 μg His-GAI held on Ni-NTA agarose, 5 μg MBP-SLY1/sly1 added with an equal amount of GST-GID1C and 0.1 mM GA3, 1 h at 4 °C, immunoblot with anti-His, anti-MBP and anti-GST; settings: both partners purified

| Molecule | response (β-galactosidase units) [1] | binding result (His-tagged GAI [3]) | further results |
| --- | --- | --- | --- |
| Marchantia polymorpha MpSLY1 (yeast bait fusion) R118P | 50 | – | – |
| Marchantia polymorpha MpSLY1 (yeast bait fusion) H147K | 130 | – | – |
| Marchantia polymorpha MpSLY1 (yeast bait fusion) Y108F | – | – | response (β-galactosidase units) [2]: 17 |
| Marchantia polymorpha MpSLY1 (yeast bait fusion) S149T | 100 | – | – |
| MBP-tagged AtSLY1 (natural protein, Arabidopsis thaliana, UniProt Q9STX3 1-151, looked up, AtSLY1 of A. thaliana; also called MBP-SLY1; source: E. coli BL21, purified (amylose resin)) MKRSTTDSDLAGDAHNETNKKMKSTEEEEIGFSNLDENLVYEVLKHVDAKTLAMSSCVSKIWHKTAQDERLWELICTRHWTNIGCGQNQLRSVVLALGGFRRLHSLYLWPLSKPNPRARFGKDELKLTLSLLSIRYYEKMSFTKRPLPESK | – | binds | – |
| MBP-sly1^gar2-1 (E138K) (natural protein, Arabidopsis thaliana, UniProt Q9STX3 1-151, looked up, AtSLY1 of A. thaliana with E138K; cloned into pMAL-c2X; also called MBP-tagged Atsly1^gar2-1; source: E. coli BL21, purified (amylose resin)) MKRSTTDSDLAGDAHNETNKKMKSTEEEEIGFSNLDENLVYEVLKHVDAKTLAMSSCVSKIWHKTAQDERLWELICTRHWTNIGCGQNQLRSVVLALGGFRRLHSLYLWPLSKPNPRARFGKDELKLTLSLLSIRYYKKMSFTKRPLPESK | – | binds | – |
| MBP-tagged Atsly1^H104Y (natural protein, Arabidopsis thaliana, UniProt Q9STX3 1-151, looked up, AtSLY1 of A. thaliana with H104Y; cloned into pMAL-c2X; source: E. coli BL21, purified (amylose resin)) MKRSTTDSDLAGDAHNETNKKMKSTEEEEIGFSNLDENLVYEVLKHVDAKTLAMSSCVSKIWHKTAQDERLWELICTRHWTNIGCGQNQLRSVVLALGGFRRLYSLYLWPLSKPNPRARFGKDELKLTLSLLSIRYYEKMSFTKRPLPESK | – | binds | – |
| GST-GID1C (receptor, Arabidopsis thaliana, UniProt Q940G6 1-344, looked up, GID1C, gibberellin receptor of A. thaliana; Used together with 0.1 mM GA3; also called GST-AtGID1C; source: E. coli BL21, purified (glutathione beads)) MAGSEEVNLIESKTVVPLNTWVLISNFKLAYNLLRRPDGTFNRHLAEFLDRKVPANANPVNGVFSFDVIIDRQTNLLSRVYRPADAGTSPSITDLQNPVDGEIVPVIVFFHGGSFAHSSANSAIYDTLCRRLVGLCGAVVVSVNYRRAPENRYPCAYDDGWAVLKWVNSSSWLRSKKDSKVRIFLAGDSSGGNIVHNVAVRAVESRIDVLGNILLNPMFGGTERTESEKRLDGKYFVTVRDRDWYWRAFLPEGEDREHPACSPFGPRSKSLEGLSFPKSLVVVAGLDLIQDWQLKYAEGLKKAGQEVKLLYLEQATIGFYLLPNNNHFHTVMDEIAAFVNAECQ | – | – | binding result (His-tagged GAI [4]): binds |
